# In publication PMC3517540, “Versatile Membrane Deformation Potential of Activated Pacsin” (PLoS ONE, 2012):
# B1: GST-PRD^trunc1 (mouse dynamin-1 PRD aa747-810 fused to GST) (domain or fragment, UniProt P39053 747-810, looked up)
# chain: TTTVSTPMPPPVDDSWLQVQSVPAGRRSPTSSPTPQRRAPAVPPARPGSRGPAPGPPPAGSALG
# notes: dynamin-1 PRD, mouse, aa747-810; also called tr1; source: purified as GST fusion protein (GSTrap, Superdex 200 SEC)
# B2: Mouse dynamin-1 proline-rich domain (residues 747-842) fused to GST (domain or fragment, UniProt P39053 747-842, looked up)
# chain: TTTVSTPMPPPVDDSWLQVQSVPAGRRSPTSSPTPQRRAPAVPPARPGSRGPAPGPPPAGSALGGAPPVPSRPGASPDPFGPPPQVPSRPNRAPPG
# notes: dynamin-1 proline-rich domain (PRD), mouse, residues 747-842; 100% identical to the human dynamin-1 PRD; Construct from the De Camilli laboratory; also called GST-PRD; PRD^wt; source: expression vector pGEX-6P-1, purified (GSTrap, Superdex 200 SEC)
# Key:
# [1] = molecular target: T1, Human full-length pacsin-1 (human, UniProt Q9BY11 1-444); experiment: pull-down; GST-PRD baits on GST SpinTrap resin, purified pacsin-1 prey 2 h at 4°C; 25 mM Tris-Cl pH 7.5, 100 mM NaCl; eluted with 10 mM glutathione; SDS-PAGE and Coomassie staining; conditions: both partners purified
# T1 construct: pacsin-1 (syndapin-1), human, full length; The His6-SUMO moiety was cleavable with Ulp-1; also called pacsin isoform 1; syndapin; source: modified pET28a expression plasmid, purified as described previously [27], [35]
# [2] = molecular target: T1, Human full-length pacsin-1; experiment: SEC; pacsin-1 (40 µM) and GST-PRD (80 µM) incubated for 15 min, then size-exclusion chromatography; fractions analysed by SDS-PAGE and Coomassie staining; conditions: both partners purified
# T1 sequence (Q9BY11 whole entry, canonical isoform): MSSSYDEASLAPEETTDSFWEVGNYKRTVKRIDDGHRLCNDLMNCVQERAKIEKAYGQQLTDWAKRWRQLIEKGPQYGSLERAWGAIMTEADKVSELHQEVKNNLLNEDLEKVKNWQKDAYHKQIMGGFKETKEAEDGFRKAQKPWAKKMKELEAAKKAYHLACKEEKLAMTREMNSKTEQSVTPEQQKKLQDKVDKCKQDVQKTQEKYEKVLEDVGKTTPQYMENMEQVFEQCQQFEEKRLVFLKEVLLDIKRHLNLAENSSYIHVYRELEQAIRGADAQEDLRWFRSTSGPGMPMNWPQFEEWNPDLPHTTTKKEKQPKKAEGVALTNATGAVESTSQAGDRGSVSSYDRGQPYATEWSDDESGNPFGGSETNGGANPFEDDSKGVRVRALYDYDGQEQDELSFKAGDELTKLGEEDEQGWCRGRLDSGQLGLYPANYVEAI
Binder,binding result [1],binding result [2]
B1,binds,–
B2,–,binds
